Test results reported in patent US20020045590A1 (Johns Hopkins, published 2002).

B1: GST-fusion protein consisting of the second PDZ domain of PSD-93 (other, UniProt Q63622 193-279, looked up)
chain: EIKLFKGPKGLGFSIAGGVGNQHIPGDNSIYVTKIIDGGAAQKDGRLQVGDRLLMVNNYSLEEVTHEEAVAILKNTSDVVYLKVGKP
notes: domain: second PDZ domain; Expressed in bacterial BL21 cells, purified on glutathione-coupled agarose; also called GST-PSD-93; GST-fusion PSD-93; not shown: glutathione S-transferase (GST) tag
B2: GST-fusion protein consisting of the second PDZ domain of PSD-95 (other, UniProt P31016 160-246, looked up)
chain: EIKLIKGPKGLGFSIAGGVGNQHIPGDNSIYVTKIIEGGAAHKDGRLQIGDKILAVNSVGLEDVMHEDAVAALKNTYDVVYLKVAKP
notes: domain: second PDZ domain; Expressed in bacterial BL21 cells, purified on glutathione-coupled agarose; also called GST-PSD-95; GST-fusion PSD-95; not shown: glutathione S-transferase (GST) tag
B3: endothelial NOS (eNOS) (enzyme, rat, UniProt Q62600 2-1202, looked up)
chain: GNLKSVGQEPGPPCGLGLGLGLGLCGKQGPASPAPEPSQAPVPPSPTRPAPDHSPPLTRPPDGPKFPRVKNWEVGSITYDTLSAQAQQDGPCTPRRCLGSLVFPRKLQSRPTQGPSPTEQLLGQARDFINQYYNSIKRSGSQAHEQRLQEVEAEVVATGTYQLRESELVFGAKQAWRNAPRCVGRIQWGKLQVFDARDCRTAQEMFTYICNHIKYATNRGNLRSAITVFPQRYAGRGDFRIWNSQLVRYAGYRQQDGSVRGDPANVEITELCIQHGWTPGNGRFDVLPLLLQAPDEPPELFTLPPELVLEVPLEHPTLEWFAALGLRWYALPAVSNMLLEIGGLEFPAAPFSGWYMSSEIGMRDLCDPHRYNILEDVAVCMDLDTRTTSSLWKDKAAVEINVAVLYSYQLAKVTIVDHHAATASFMKHLENEQKARGGCPADWAWIVPPISGSLTPVFHQEMVNYFLSPAFRYQPDPWKGSAAKGTGITRKKTFKEVANAVKISASLMGTVMAKRVKATILYGSETGRAQSYAQQLGRLFRKAFDPRVLCMDEYDVVSLEHEALVLVVTSTFGNGDPPENGESFAAALMEMSGPYNSSPRPEQHKSYKIRFNSVSCSDPLVSSWRRKRKESSNTDSAGALGTLRFCVFGLGSRAYPHFCAFARAVDTRLEELGGERLLQLGQGDELCGQEEAFRGWAQAAFQAACETFCVGEDAKAAARDIFSPKRSWKRQRYRLSTQAESLQLLPRLTHVHRRKMFQATILSVENLQSSKSTRATILVRLDTGSQEGLQYQPGDHIGVCPPNRPGLVEALLSRVEDPPPSTEPVAVEQLEKGSPGGPPPGWVRDPRLPPCTLRQALTYFLDITSPPSPRLLRLLSTLAEESSEQQELEALSQDPRRYEEWKWFRCPTLLEVLEQFPSVALPAPLILTQLPLLQPRYYSVSSAPSAHPGEIHLTVAVLAYRTQDGLGPLHYGVCSTWMSQLKAGDPVPCFIRGAPSFRLPPDPNLPCILVGPGTGIAPFRGFWQDRLHDIEIKGLQPAPMTLVFGCRCSQLDHLYRDEVLDAQQRGVFGQVLTAFSRDPGSPKTYVQDLLRTELAAEVHRVLCLEQGHMFVCGDVTMATSVLQTVQRILATEGSMELDEAGDVIGVLRDQQRYHEDIFGLTLRTQEVTSRIRTQSFSLQERQLRGAVPWSFDPPTQETPGS
notes: Endogenous rat protein

Tests used:
[1] = molecular target: T1, neuronal nitric oxide synthase (nNOS) (rat, UniProt P29476 1-1429, limits assumed); experiment: GST fusion protein binding assay with rat hippocampus membrane proteins, immunoblot
T1 construct: Endogenous rat protein
Method: We utilized the yeast two-hybrid system to investigate the effects of halothane on protein interactions within the NMDA receptor signaling complex. The PDZ domain of nNOS or the C-terminus of NMDA receptor subunit 2B (NR2B) was fused in frame with the GAL4 DNA-binding domain in a yeast vector, pGBT9. […] Both yeast vectors were co-transformed into the Y190 yeast strain, which was then grown in the absence or presence of halothane at clinically relevant concentrations. Protein-protein interactions were confirmed by both yeast growth on -Leu/-Trp/-His (-LTH) medium and lacz expression. To confirm the yeast two-hybrid results, the GST fusion protein binding assay was performed. […] After extensive washing, the bound proteins were eluted by boiling in 1 X SDS-PAGE sample buffer and detected by immunoblotting.

[2] = molecular target: T2, postsynaptic density-95 (PSD-95)/synapse-associated protein-90 (SAP90) (rat, UniProt P31016 1-724); experiment: co-immunoprecipitation from rat spinal cord PSD fraction, immunoblot
T2 construct: Endogenous protein from rat spinal cord PSD fraction, pulled down by co-immunoprecipitation; also called PSD-95/SAP90
T2 sequence (P31016 whole entry): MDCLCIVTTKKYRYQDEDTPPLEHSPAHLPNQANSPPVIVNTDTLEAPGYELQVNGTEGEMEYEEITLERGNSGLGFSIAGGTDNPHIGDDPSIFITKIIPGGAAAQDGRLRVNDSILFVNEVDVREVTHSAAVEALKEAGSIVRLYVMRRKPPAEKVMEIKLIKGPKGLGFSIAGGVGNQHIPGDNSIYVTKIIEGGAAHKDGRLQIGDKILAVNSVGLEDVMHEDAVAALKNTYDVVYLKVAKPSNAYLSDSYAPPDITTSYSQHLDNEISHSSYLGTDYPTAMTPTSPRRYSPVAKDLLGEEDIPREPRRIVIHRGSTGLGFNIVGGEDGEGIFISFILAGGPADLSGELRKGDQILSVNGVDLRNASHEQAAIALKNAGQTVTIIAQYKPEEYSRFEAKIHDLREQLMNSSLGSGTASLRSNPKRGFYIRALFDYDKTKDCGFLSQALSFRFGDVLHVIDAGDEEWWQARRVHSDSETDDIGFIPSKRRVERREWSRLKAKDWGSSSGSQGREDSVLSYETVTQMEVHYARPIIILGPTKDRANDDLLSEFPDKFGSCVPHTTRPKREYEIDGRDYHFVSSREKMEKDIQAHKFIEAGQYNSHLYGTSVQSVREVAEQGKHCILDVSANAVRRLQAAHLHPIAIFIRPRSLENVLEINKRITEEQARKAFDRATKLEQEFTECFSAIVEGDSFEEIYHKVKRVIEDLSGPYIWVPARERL

T1 sequence (P29476 whole entry, the tested form may be a part): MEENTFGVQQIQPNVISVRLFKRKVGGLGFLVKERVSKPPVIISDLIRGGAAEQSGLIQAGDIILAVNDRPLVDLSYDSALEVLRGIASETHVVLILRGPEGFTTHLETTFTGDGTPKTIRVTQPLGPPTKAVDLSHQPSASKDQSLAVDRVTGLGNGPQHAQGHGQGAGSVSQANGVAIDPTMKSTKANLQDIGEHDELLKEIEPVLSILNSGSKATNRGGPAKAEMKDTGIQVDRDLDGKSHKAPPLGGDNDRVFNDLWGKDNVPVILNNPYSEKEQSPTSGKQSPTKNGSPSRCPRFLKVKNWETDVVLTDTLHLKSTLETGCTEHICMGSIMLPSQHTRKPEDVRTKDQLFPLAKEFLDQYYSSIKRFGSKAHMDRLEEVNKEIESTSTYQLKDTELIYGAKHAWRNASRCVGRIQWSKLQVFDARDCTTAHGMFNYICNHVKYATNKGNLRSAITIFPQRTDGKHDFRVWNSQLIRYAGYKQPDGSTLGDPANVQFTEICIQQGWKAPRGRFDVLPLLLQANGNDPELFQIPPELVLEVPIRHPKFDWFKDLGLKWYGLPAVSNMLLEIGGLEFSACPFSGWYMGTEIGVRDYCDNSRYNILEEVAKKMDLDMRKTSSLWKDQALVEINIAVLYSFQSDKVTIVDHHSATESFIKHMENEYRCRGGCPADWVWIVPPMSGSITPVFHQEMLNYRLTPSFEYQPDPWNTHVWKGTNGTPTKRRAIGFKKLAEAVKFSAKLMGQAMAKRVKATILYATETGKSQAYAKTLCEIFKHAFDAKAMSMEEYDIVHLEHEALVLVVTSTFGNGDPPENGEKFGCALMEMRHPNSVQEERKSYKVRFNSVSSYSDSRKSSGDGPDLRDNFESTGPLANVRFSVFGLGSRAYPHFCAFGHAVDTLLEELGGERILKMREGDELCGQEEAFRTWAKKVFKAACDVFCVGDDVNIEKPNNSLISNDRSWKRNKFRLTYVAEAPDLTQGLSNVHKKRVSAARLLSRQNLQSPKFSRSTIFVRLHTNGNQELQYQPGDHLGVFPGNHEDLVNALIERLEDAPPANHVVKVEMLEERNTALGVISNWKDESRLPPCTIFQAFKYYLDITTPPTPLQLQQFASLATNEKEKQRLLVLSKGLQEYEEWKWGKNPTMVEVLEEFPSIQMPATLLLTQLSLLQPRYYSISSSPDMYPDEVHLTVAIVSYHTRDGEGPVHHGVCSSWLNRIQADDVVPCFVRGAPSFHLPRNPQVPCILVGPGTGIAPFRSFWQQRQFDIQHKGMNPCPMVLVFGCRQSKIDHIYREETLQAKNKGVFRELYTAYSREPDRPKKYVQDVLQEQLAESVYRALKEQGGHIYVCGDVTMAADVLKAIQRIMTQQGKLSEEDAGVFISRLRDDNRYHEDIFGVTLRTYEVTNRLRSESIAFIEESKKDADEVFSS

Binder | binding result [1] | binding result [2]
B1 | binds | –
B2 | binds | –
B3 | – | no binding
